Reference: patent US20040259075A1

Target: Env-CD4-CCR5 complex (Example II) (UniProt P01730)
Assay: method not stated; reference is X5-Fab

Env-CD4-CCR5 complex (Example II), sequence (P51681 whole entry, chain 2 of 2, other chains not shown): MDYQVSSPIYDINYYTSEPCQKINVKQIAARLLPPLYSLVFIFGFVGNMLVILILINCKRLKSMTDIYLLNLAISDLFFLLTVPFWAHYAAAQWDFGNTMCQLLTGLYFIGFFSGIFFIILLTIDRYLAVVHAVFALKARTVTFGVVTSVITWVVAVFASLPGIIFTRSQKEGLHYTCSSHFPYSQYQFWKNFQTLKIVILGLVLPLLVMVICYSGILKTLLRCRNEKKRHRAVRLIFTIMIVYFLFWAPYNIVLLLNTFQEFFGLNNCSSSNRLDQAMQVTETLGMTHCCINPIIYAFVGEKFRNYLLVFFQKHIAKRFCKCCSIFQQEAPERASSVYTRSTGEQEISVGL

B1: FabS (Fab, V domains shown)
VH: VQLLEQSGAEVKKPGSSVQVSCKASGGTFSMYGFNWVRQAPGHGLEWMGGIIPIFGTSNYAQKFRGRVTFTADQATSTAYMELTNLRSDDTAVYYCARDFGPDWEDGDSYDGSGRGFFDFWGQGTLVTVSS
VL: ELVLTQSPGTLSLSAGERATLSCRASQSVSSGSLAWYQQKPGQAPRLLIYGASTRATGIPDRFSGSGSGTDFTLTIGRLEPEDLAVYYCQQYGTSPYTFGQGTKLEIKR
fold increased affinity compared to the original X5-Fab: 5 fold
